These results are taken from publication PMC4932527.

In the assay the target is human LEPTIN receptor expressed in 293FT cells (human) (UniProt P48357).
Sequence of UniProt P48357 (P48357 22-1165): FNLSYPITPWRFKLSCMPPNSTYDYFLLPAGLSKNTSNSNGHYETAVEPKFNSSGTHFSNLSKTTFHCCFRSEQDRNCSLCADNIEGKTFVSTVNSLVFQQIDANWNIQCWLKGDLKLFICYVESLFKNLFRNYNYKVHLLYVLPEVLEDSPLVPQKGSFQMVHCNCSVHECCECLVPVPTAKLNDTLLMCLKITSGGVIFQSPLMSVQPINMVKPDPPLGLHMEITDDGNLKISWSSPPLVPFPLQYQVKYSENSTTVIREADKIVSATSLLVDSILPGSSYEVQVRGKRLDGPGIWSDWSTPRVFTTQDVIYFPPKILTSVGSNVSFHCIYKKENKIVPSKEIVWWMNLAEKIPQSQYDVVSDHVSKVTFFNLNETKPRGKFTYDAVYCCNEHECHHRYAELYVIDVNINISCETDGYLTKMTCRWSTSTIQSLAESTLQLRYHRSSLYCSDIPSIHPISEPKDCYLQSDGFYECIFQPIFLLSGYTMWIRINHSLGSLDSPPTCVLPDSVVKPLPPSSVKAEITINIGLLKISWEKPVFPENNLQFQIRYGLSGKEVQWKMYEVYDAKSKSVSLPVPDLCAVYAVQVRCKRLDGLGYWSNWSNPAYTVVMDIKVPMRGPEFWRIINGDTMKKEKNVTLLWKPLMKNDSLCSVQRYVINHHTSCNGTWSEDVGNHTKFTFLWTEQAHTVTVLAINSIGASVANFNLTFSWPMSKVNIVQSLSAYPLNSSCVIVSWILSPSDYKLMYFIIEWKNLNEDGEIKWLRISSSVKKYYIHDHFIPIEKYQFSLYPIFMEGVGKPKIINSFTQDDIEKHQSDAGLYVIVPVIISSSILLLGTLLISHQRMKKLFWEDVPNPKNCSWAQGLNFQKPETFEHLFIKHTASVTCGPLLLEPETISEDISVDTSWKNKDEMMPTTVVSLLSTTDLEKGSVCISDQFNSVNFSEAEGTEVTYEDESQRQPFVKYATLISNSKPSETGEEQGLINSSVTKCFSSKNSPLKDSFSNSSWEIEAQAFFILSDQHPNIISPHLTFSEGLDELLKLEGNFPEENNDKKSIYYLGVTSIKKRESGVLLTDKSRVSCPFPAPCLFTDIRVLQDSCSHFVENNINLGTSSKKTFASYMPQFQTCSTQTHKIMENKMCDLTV

As to “recombinant rat LEPTIN, wild type (from UniProt P50596 22-167) (ligand)”, the STAT3 luciferase reporter (pGL6-Stat3, normalised to renilla) in 293FT cells transfected with LEPR, treated with different concentrations of recombinant LEP; EC50 of activation turned out to be 3e-09 M.
